Results: article PMC12668182, “Molecular basis for CSB stimulation of the SNM1A DNA repair nuclease” (Research Square, 2025)
“And” between values parts separate entries of the source, which are not always exact repeats. Equal entries are not always repeated. Values belong to the binder of their own block, whether it stands above or below them.

B5: N-Avi-Biotin-SNM1A (a.a. 698-1040), wild type (domain or fragment, human, UniProt Q6PJP8 698-1040, looked up)
chain: KKTCPFYKKIPGTGFTVDAFQYGVVEGCTAYFLTHFHSDHYAGLSKHFTFPVYCSEITGNLLKNKLHVQEQYIHPLPLDTECIVNGVKVVLLDANHCPGAVMILFYLPNGTVILHTGDFRADPSMERSLLADQKVHMLYLDTTYCSPEYTFPSQQEVIRFAINTAFEAVTLNPHALVVCGTYSIGKEKVFLAIADVLGSKVGMSQEKYKTLQCLNIPEINSLITTDMCSSLVHLLPMMQINFKGLQSHLKKCGGKYNQILAFRPTGWTHSNKFTRIADVIPQTKGNISIYGIPYSEHSSYLEMKRFVQWLKPQKIIPTVNVGTWKSRSTMEKYFREWKLEAGY
modifications: biotin on the N-terminal Avi tag
notes: SNM1A (DCLRE1A), human, core catalytic domain (MBL-beta-CASP), residues 698-1040; Immobilised in SPR through the biotinylated Avi tag; held on streptavidin mutein beads in the co-purifications; also called N-Avi-SNM1A_(698-1040); core catalytic domain of SNM1A; source: Sf9 insect cells (BirA co-expressed, D-biotin added), purified (streptavidin mutein matrix, Superdex S75); not shown: Avi …
B8: E864A-SNM1A (MBL-beta-CASP domain, a.a. 698-1040), N-Avi (domain or fragment, human, UniProt Q6PJP8 698-1040, looked up)
chain: KKTCPFYKKIPGTGFTVDAFQYGVVEGCTAYFLTHFHSDHYAGLSKHFTFPVYCSEITGNLLKNKLHVQEQYIHPLPLDTECIVNGVKVVLLDANHCPGAVMILFYLPNGTVILHTGDFRADPSMERSLLADQKVHMLYLDTTYCSPEYTFPSQQEVIRFAINTAFAAVTLNPHALVVCGTYSIGKEKVFLAIADVLGSKVGMSQEKYKTLQCLNIPEINSLITTDMCSSLVHLLPMMQINFKGLQSHLKKCGGKYNQILAFRPTGWTHSNKFTRIADVIPQTKGNISIYGIPYSEHSSYLEMKRFVQWLKPQKIIPTVNVGTWKSRSTMEKYFREWKLEAGY
modifications: biotin on the N-terminal Avi tag
notes: SNM1A (DCLRE1A), human, core catalytic domain, residues 698-1040, E864A; also called SNM1A-E864A; SNM1A (E864A); source: Sf9 insect cells (D-biotin added), purified (streptavidin mutein matrix, gel filtration)

How the values were obtained:
[1] = target: B5; test: pull-down + SEC; co-purification: CSB construct (eluted from Ni-NTA, desalted) incubated with N-Avi-Biotin-SNM1A on streptavidin mutein beads, washed (500 mM NaCl, 1 mM Mg2+), eluted with 5 mM D-biotin, run on Superdex S200 GL 10/300; SDS-PAGE, MS and calibration curve; conditions: both partners purified
[2] = target: B5; test: SPR; single-cycle; SNM1A immobilised via biotinylated N-terminal Avi tag on a Series S SA surface (~4000 RU); CSB constructs as analytes, 5 or 6 two-fold dilutions from 500 nM or 1 uM; 20 mM HEPES pH 7.5, 150 mM NaCl, 0.5 mM TCEP; 1:1 Langmuir fit; apparent KD; conditions: both partners purified
[3] = target: B8; test: as above; conditions: both partners purified
[4] = target: the molecule itself; test: SEC-MALS; DN-CSB alone, 5 uM; monomer to dimer
[5] = target: B5; test: SPR; multi-cycle; SNM1A immobilised via biotinylated N-terminal Avi tag (~4000 RU); two-fold dilutions from 2 uM, 300 s injection, 1200 s dissociation; regeneration with 1 M NaCl; apparent KD; conditions: both partners purified
[6] = target: T1, full-length CSB (ERCC6), wild type, recombinant (human, UniProt Q03468 1-1493); test: SPR; single-cycle; SNM1A immobilised via biotinylated N-terminal Avi tag on a Series S SA surface (~4000 RU); CSB constructs as analytes, 5 or 6 two-fold dilutions from 500 nM or 1 uM; 20 mM HEPES pH 7.5, 150 mM NaCl, 0.5 mM TCEP; 1:1 Langmuir fit; apparent KD; conditions: both partners purified
T1 construct: CSB (ERCC6), human, full length, a.a; A TEV site follows the N-terminal tags, but no cleavage is described; also called FL-CSB; WT-CSB; source: Sf9 insect cells, purified (Ni-NTA, Superdex S200, HiTrap SP)

[7] = target: T1, full-length CSB (ERCC6), wild type, …; test: mass photometry; CSB and SNM1A mixed at 200 nM each, 5 min at room temperature, diluted 10-fold into the gasket; 50 mM HEPES pH 7.5, 300 mM NaCl, 0.5 mM TCEP; KD from mass counts; conditions: both partners purified
[8] = target: T2, HaloTag-CSB, full length, JaneliaFluor-labelled (human, UniProt Q03468 1-1493, JaneliaFluor dye (JF552 or JF635) on the HaloTag); test: single-molecule fluorescence on tethered DNA (SMADNE, LUMICKS C-Trap); partially purified HaloTag-JF-552 SNM1A added to HaloTag-CSB (JF635) nuclear extract, on a site-specific ICL flap repair intermediate in 12 kb DNA; apparent constants; DNA present; conditions: one partner purified
T2 construct: CSB (ERCC6), human, full length, codon-optimised for mammalian expression; Vectors with N-terminal HaloTag under a CMV promoter (Promega pFN28A or Addgene 58241, both used on separate days); also called CSB (JF-635, red); CSB (JF552, green); source: Expi293F, transfected, in nuclear extract; not shown: HaloTag, N-terminal, kept

[9] = target: T2, HaloTag-CSB, full length, …; test: single-molecule fluorescence on tethered DNA (SMADNE, LUMICKS C-Trap); partially purified HaloTag-JF-552 SNM1A added to HaloTag-CSB (JF635) nuclear extract, on lambda dsDNA; category 9 colocalisation events; apparent constants; DNA present; conditions: one partner purified

B1: CSB C-terminal domain (a.a. 1187-1493) (domain or fragment, human, UniProt Q03468 1187-1493, looked up)
chain: HHSVAEEETLEKHLRPKQKPKNSKHCRDAKFEGTRIPHLVKKRRYQKQDSENKSEAKEQSNDDYVLEKLFKKSVGVHSVMKHDAIMDGASPDYVLVEAEANRVAQDALKALRLSRQRCLGAVSGVPTWTGHRGISGAPAGKKSRFGKKRNSNFSVQHPSSTSPTEKCQDGIMKKEGKDNVPEHFSGRAEDADSSSGPLASSSLLAKMRARNHLILPERLESESGHLQEASALLPTTEHDDLLVEMRNFIAFQAHTDGQASTREILQEFESKLSASQSCVFRELLRNLCTFHRTSGGEGIWKLKPEYC
notes: pNIC28-Bsa4 vector: N-terminal His6 followed by a TEV site; no cleavage is described; also called C-terminal CSB construct; source: E. coli BL21(DE3) pLysS, purified (Ni-NTA, Superdex S75)
stoichiometry N [1]: 2
Kd [2]: 10.7 nM and 12 nM
Kd [3]: 29 nM

B2: CSB winged-helix domain (WHD, a.a. 1424-1493) (domain or fragment, human, UniProt Q03468 1424-1493, looked up)
chain: HDDLLVEMRNFIAFQAHTDGQASTREILQEFESKLSASQSCVFRELLRNLCTFHRTSGGEGIWKLKPEYC
notes: also called CSB-WHD; source: E. coli BL21(DE3) pLysS, purified (Ni-NTA, Superdex S75)
stoichiometry N [1]: 1
Kd [2]: 89 nM
Kd [3]: ~1000 nM

B3: CSB lacking the N-terminal domain (DN-CSB, a.a. 402-1493) (domain or fragment, human, UniProt Q03468 402-1493, looked up)
chain: YELKPLPKGGKRQKKVPVQEIDDDFFPSSGEEAEAASVGEGGGGGRKVGRYRDDGDEDYYKQRLRRWNKLRLQDKEKRLKLEDDSEESDAEFDEGFKVPGFLFKKLFKYQQTGVRWLWELHCQQAGGILGDEMGLGKTIQIIAFLAGLSYSKIRTRGSNYRFEGLGPTVIVCPTTVMHQWVKEFHTWWPPFRVAILHETGSYTHKKEKLIRDVAHCHGILITSYSYIRLMQDDISRYDWHYVILDEGHKIRNPNAAVTLACKQFRTPHRIILSGSPMQNNLRELWSLFDFIFPGKLGTLPVFMEQFSVPITMGGYSNASPVQVKTAYKCACVLRDTINPYLLRRMKSDVKMSLSLPDKNEQVLFCRLTDEQHKVYQNFVDSKEVYRILNGEMQIFSGLIALRKICNHPDLFSGGPKNLKGLPDDELEEDQFGYWKRSGKMIVVESLLKIWHKQGQRVLLFSQSRQMLDILEVFLRAQKYTYLKMDGTTTIASRQPLITRYNEDTSIFVFLLTTRVGGLGVNLTGANRVVIYDPDWNPSTDTQARERAWRIGQKKQVTVYRLLTAGTIEEKIYHRQIFKQFLTNRVLKDPKQRRFFKSNDLYELFTLTSPDASQSTETSAIFAGTGSDVQTPKCHLKRRIQPAFGADHDVPKRKKFPASNISVNDATSSEEKSEAKGAEVNAVTSNRSDPLKDDPHMSSNVTSNDRLGEETNAVSGPEELSVISGNGECSNSSGTGKTSMPSGDESIDEKLGLSYKRERPSQAQTEAFWENKQMENNFYKHKSKTKHHSVAEEETLEKHLRPKQKPKNSKHCRDAKFEGTRIPHLVKKRRYQKQDSENKSEAKEQSNDDYVLEKLFKKSVGVHSVMKHDAIMDGASPDYVLVEAEANRVAQDALKALRLSRQRCLGAVSGVPTWTGHRGISGAPAGKKSRFGKKRNSNFSVQHPSSTSPTEKCQDGIMKKEGKDNVPEHFSGRAEDADSSSGPLASSSLLAKMRARNHLILPERLESESGHLQEASALLPTTEHDDLLVEMRNFIAFQAHTDGQASTREILQEFESKLSASQSCVFRELLRNLCTFHRTSGGEGIWKLKPEYC
notes: Cloned by InFusion from the full-length CSB pFastBac vector
stoichiometry N [4]: 2

Binder: B5
Kd [6]: 4.8 nM and 4 nM

Binder: B8
Kd [6]: 8 nM

The next lines start with the values.

binding result [5]: binds
B4: CSB (a.a. 1308-1493) (domain or fragment, human, UniProt Q03468 1308-1493, looked up)
chain: VSGVPTWTGHRGISGAPAGKKSRFGKKRNSNFSVQHPSSTSPTEKCQDGIMKKEGKDNVPEHFSGRAEDADSSSGPLASSSLLAKMRARNHLILPERLESESGHLQEASALLPTTEHDDLLVEMRNFIAFQAHTDGQASTREILQEFESKLSASQSCVFRELLRNLCTFHRTSGGEGIWKLKPEYC
notes: source: E. coli BL21(DE3) pLysS, purified (Ni-NTA, Superdex S75)

Kd [7]: 499 nM
B6: SNM1A (a.a. 698-1040), tag of the preparation not stated (domain or fragment, human, UniProt Q6PJP8 698-1040, looked up)
chain: KKTCPFYKKIPGTGFTVDAFQYGVVEGCTAYFLTHFHSDHYAGLSKHFTFPVYCSEITGNLLKNKLHVQEQYIHPLPLDTECIVNGVKVVLLDANHCPGAVMILFYLPNGTVILHTGDFRADPSMERSLLADQKVHMLYLDTTYCSPEYTFPSQQEVIRFAINTAFEAVTLNPHALVVCGTYSIGKEKVFLAIADVLGSKVGMSQEKYKTLQCLNIPEINSLITTDMCSSLVHLLPMMQINFKGLQSHLKKCGGKYNQILAFRPTGWTHSNKFTRIADVIPQTKGNISIYGIPYSEHSSYLEMKRFVQWLKPQKIIPTVNVGTWKSRSTMEKYFREWKLEAGY
notes: SNM1A (DCLRE1A), human, core catalytic domain, residues 698-1040; Used for HDX-MS, mass photometry and nuclease assays; Mass photometry legend gives an expected mass of 36 kDa; also called C-terminal SNM1A; source: purified from insect cells

apparent KD of SNM1A for the CSB-bound ICL repair intermediate [8]: 45 nM
apparent KD of SNM1A for CSB-bound lambda dsDNA [9]: 17.5 nM
B7: HaloTag-JF-552-labelled SNM1A (a.a. 698-1040), partially purified (domain or fragment, human, UniProt Q6PJP8 698-1040, looked up)
chain: KKTCPFYKKIPGTGFTVDAFQYGVVEGCTAYFLTHFHSDHYAGLSKHFTFPVYCSEITGNLLKNKLHVQEQYIHPLPLDTECIVNGVKVVLLDANHCPGAVMILFYLPNGTVILHTGDFRADPSMERSLLADQKVHMLYLDTTYCSPEYTFPSQQEVIRFAINTAFEAVTLNPHALVVCGTYSIGKEKVFLAIADVLGSKVGMSQEKYKTLQCLNIPEINSLITTDMCSSLVHLLPMMQINFKGLQSHLKKCGGKYNQILAFRPTGWTHSNKFTRIADVIPQTKGNISIYGIPYSEHSSYLEMKRFVQWLKPQKIIPTVNVGTWKSRSTMEKYFREWKLEAGY
modifications: JF-552 dye on the HaloTag
notes: SNM1A (DCLRE1A), human, catalytic C-terminal domain, residues 698-1040; Addgene vector (printed as Addgene: 58241) giving an N-terminal His-Halo tag; also called SNM1A (JF-552, green); SNM1A_(698-1040) for single-molecule studies; source: Expi293F, transfected, partially purified (Ni-NTA); not shown: HaloTag, N-terminal, kept
